Assay [1] concerns the target T1, Human LILRA1 on transiently transfected HEK293-6E cells (human, UniProt O75019 17-489).
T1 construct: whole, on cells; also called hLILRA1
The experiment in a line: flow cytometry, transiently transfected HEK293-6E cells.

The target in assay [2] is T2, Human LILRA2 on transiently transfected HEK293-6E cells (human, UniProt Q8N149 24-483).
T2 construct: whole, on cells; also called hLILRA2
The assay is described as above.

Assay [3] addresses T3, Human LILRA4 on transiently transfected HEK293-6E cells (human, UniProt P59901 24-499).
T3 construct: whole, on cells; also called hLILRA4
The description is as above.

The target of assay [4] is T4, Human LILRA5 on transiently transfected HEK293-6E cells (human, UniProt A6NI73 42-299).
T4 construct: whole, on cells; also called hLILRA5
T4 sequence (A6NI73 42-299): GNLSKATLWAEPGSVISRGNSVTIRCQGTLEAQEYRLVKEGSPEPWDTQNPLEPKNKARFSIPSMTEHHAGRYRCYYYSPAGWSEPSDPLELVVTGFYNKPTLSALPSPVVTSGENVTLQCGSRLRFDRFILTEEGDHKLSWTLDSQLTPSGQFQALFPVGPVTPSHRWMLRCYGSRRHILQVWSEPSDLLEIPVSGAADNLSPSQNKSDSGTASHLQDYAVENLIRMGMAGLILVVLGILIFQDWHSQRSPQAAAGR
The assay is described as above.

Assay [5] concerns the target T5, Human LILRA6 on transiently transfected HEK293-6E cells (human, UniProt Q6PI73 24-481).
T5 construct: whole, on cells; also called hLILRA6
The assay is described as above.

The target of assay [6] is T6, Human LILRB1 on transiently transfected HEK293-6E cells (human, UniProt Q8NHL6 24-650).
T6 construct: whole, on cells; also called hLILRB1
T6 sequence (Q8NHL6 24-650): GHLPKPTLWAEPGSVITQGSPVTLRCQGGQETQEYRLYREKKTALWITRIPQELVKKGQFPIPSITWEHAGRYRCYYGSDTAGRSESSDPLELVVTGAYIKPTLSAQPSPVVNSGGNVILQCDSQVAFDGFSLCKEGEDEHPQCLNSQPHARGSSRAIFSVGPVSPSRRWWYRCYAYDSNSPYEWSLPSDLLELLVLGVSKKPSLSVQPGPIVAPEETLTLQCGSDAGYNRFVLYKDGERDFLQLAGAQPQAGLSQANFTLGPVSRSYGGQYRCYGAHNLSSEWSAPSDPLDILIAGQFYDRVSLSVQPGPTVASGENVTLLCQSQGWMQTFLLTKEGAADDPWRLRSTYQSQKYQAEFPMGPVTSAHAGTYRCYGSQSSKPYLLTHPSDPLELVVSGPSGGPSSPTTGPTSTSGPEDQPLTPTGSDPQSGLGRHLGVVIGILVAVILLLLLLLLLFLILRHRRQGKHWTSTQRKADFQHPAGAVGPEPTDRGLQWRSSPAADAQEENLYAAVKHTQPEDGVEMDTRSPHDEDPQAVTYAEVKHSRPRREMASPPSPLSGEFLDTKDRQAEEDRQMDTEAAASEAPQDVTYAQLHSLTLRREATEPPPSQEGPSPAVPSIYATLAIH
Described as above.

The target in assay [7] is T7, Human LILRB3 on transiently transfected HEK293-6E cells (human, UniProt O75022 24-631).
T7 construct: whole, on cells; also called hLILRB3
Described as above.

Assay [8] deals with T8, Human LILRB4 on transiently transfected HEK293-6E cells (human, UniProt Q8NHJ6 22-448).
T8 construct: whole, on cells; also called hLILRB4
The assay is described as above.

Assay [9] addresses T9, Human LILRB5 on transiently transfected HEK293-6E cells (human, UniProt O75023 24-590).
T9 construct: whole, on cells; also called hLILRB5
Described as above.

For assay [10], the target named is T3, Human LILRA4 on transiently transfected …. The description is as above. As to the method:
(§1) To determine that the anti-LILRB2 antibodies specifically bind to LILRB2 and not other LILRB and LILRA family members, a cross-reactivity assay was performed. Cross-reactivity of the LILRB2 antibodies to other LILRB proteins was assessed by antibody binding to transiently transfected HEK293-6E cells, measured by flow cytometry. Binding was evaluated to HEK293-6E cells transiently transfected with human LILRB-1, -2, -3, -4, and 5 plasmids (Origene, Nos. RC219949, RC217935, RC211228, RC220932, RC206516) or to cells transiently transfected with human LILRA-1, -2, -4, -5, and -6 plasmids (Origene, Nos. RC210808, RC205626, RC220452, RC212310 RC212965). […] Murine primary antibodies to LILRA and LILRB targets and corresponding isotype controls were used to confirm specific binding of all targets tested (R&D Systems) while an AF647 F(ab′)₂ fragment goat anti-mouse antibody (Jackson ImmunoResearch, No. 115-606-062) was used for the detection of bound positive control antibodies. No binding of B2A-IgG4 or B2A-IgG1 to LILRB-1, -3, -4, or -5 was observed, and no binding of either antibody to LILRA-1, -2, -4, -5, or -6 was observed, confirming specificity of these antibodies.
Select humanized variant antibodies were tested for their ability to bind other LILRB or LILRA family members, using the method and commercially available positive control antibodies of Example 5.
This is another data set of the same source.

The target of assay [11] is T10, Human LILRB2 on transiently transfected HEK293-6E cells (human, UniProt Q8N423 22-597).
T10 construct: whole, on cells; also called hLILRB2
T10 sequence (Q8N423 22-597): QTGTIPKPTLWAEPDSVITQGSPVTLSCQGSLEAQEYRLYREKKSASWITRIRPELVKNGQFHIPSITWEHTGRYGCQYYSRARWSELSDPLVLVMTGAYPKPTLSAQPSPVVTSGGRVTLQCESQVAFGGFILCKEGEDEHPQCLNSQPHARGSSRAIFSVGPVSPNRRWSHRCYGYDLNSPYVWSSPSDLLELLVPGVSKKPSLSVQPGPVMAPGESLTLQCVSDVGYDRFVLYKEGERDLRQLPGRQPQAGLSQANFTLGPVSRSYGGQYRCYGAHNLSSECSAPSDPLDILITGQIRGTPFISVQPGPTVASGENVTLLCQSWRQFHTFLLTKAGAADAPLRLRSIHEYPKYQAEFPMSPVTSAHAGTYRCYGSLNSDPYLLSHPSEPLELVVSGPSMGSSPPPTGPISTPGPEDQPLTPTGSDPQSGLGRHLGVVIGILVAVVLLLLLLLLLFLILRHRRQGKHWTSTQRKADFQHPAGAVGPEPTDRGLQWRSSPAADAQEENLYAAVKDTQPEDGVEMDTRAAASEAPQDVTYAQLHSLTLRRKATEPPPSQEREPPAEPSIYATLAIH
Described as above. As to the method:
as §1

The target in assay [12] is T1, Human LILRA1 on transiently transfected …. The description is as above. The method, then: as §1
The source holds these as a separate data set.

Assay [13] has as its target T2, Human LILRA2 on transiently transfected …. Described as above. The method, then:
as §1
This is another data set of the same source.

Assay [14] concerns the target T3, Human LILRA4 on transiently transfected …. The assay is described as above. As to the method:
as §1
The source holds these as a separate data set.

The target of assay [15] is T4, Human LILRA5 on transiently transfected …. The description is as above. The method, then: as §1
The source holds these as a separate data set.

The target in assay [16] is T5, Human LILRA6 on transiently transfected …. Described as above. The method, then: as §1
The source holds these as a separate data set.

Assay [17] concerns the target T7, Human LILRB3 on transiently transfected …. The assay is described as above. As to the method:
as §1
This is another data set of the same source.

Assay [18] addresses T8, Human LILRB4 on transiently transfected …. The description is as above. As to the method: as §1
This is another data set of the same source.

In assay [19] the target is T9, Human LILRB5 on transiently transfected …. The description is as above. As to the method:
as §1
The source holds these as a separate data set.

For assay [20], the target named is T11, Human LILRB2 on stably transduced HEK293T cells (human, UniProt Q8N423 22-597).
T11 construct: Lentiviral transduction (G&P Biosciences LTV2992); also called HEK293T-LILRB2; LILRB2-expressing HEK293T cells
T11 sequence (Q8N423 other isoform, or with tags, fused parts or gaps limits assumed): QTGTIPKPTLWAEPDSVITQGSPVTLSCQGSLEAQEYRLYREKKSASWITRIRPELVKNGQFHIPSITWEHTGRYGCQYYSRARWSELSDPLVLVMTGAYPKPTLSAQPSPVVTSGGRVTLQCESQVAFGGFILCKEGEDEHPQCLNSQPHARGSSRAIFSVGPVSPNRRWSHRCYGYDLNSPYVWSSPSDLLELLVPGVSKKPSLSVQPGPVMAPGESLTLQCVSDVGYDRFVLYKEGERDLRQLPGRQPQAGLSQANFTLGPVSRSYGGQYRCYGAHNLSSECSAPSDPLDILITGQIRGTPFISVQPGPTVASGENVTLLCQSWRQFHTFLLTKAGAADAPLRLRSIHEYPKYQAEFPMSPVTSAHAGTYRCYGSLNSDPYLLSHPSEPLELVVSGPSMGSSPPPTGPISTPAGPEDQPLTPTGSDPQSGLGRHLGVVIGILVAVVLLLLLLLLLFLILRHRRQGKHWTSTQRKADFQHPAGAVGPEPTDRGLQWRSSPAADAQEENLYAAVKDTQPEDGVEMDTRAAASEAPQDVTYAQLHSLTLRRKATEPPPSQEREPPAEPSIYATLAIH
Kind of assay: flow cytometry, HEK293T cells stably expressing human LILRB2. As to the method: To confirm binding of LILRB2 antibodies, flow cytometry binding assays were performed using HEK293T cells stably expressing human LILRB2 (Example 3). […] The B2A-IgG1 and B2A-IgG4 chimeras bound the LILRB2-expressing HEK293T cells, with equivalent EC₅₀ values of 0.21 nM and 0.30 nM respectively.

T2 sequence (Q8N149 24-483): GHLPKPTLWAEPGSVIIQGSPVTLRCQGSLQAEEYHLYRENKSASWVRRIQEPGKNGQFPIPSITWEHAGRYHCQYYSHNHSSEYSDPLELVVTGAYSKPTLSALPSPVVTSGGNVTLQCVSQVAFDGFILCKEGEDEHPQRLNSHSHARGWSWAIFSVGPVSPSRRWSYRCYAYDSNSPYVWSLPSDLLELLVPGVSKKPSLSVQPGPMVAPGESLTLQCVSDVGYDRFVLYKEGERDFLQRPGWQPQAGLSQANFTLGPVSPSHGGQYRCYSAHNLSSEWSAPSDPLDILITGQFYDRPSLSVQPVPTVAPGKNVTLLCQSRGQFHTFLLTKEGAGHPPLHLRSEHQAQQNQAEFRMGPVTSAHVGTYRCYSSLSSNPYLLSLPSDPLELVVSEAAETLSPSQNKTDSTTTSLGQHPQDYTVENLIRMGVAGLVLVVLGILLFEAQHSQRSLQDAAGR
T9 sequence (O75023 24-590): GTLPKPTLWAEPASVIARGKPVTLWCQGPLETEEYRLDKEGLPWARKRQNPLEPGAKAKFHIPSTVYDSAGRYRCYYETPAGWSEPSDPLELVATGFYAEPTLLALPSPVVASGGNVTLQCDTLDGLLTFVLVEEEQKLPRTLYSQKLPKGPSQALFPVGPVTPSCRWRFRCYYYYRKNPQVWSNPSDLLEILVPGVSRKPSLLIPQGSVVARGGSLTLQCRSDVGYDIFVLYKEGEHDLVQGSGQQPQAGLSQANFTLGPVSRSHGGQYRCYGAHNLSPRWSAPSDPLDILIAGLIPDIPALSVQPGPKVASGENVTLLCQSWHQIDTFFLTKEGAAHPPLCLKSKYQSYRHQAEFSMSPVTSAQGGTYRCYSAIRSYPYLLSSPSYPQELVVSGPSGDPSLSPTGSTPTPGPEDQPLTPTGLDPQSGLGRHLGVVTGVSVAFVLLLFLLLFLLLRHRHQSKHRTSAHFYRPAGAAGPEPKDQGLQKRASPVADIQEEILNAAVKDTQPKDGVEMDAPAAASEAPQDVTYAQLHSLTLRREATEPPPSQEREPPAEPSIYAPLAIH
T1 sequence (O75019 17-489): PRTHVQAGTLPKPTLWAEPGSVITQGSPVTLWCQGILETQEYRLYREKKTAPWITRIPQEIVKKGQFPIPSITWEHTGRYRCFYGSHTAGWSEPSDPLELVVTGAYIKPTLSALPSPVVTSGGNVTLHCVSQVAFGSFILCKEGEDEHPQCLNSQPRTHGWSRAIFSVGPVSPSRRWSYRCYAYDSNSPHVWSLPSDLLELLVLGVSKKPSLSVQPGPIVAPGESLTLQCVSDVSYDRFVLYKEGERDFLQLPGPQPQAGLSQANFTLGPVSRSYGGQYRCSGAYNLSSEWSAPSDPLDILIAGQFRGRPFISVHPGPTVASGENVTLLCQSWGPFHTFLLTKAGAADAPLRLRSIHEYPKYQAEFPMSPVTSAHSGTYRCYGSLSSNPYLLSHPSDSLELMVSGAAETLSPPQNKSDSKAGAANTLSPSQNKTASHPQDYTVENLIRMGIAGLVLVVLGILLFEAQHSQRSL
T3 sequence (P59901 24-499): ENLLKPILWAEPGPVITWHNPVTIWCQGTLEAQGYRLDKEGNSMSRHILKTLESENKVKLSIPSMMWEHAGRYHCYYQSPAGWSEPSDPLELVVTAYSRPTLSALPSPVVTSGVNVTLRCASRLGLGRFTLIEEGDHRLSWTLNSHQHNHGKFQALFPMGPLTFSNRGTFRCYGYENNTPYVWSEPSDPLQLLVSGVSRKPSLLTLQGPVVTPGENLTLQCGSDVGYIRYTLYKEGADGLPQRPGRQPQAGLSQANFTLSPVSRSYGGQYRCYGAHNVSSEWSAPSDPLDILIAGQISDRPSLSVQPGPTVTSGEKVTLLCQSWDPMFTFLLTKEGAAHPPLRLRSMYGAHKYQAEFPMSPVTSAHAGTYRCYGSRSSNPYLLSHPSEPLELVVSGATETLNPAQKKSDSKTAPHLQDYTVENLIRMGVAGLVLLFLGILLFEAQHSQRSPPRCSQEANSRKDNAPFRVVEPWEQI
T5 sequence (Q6PI73 24-481): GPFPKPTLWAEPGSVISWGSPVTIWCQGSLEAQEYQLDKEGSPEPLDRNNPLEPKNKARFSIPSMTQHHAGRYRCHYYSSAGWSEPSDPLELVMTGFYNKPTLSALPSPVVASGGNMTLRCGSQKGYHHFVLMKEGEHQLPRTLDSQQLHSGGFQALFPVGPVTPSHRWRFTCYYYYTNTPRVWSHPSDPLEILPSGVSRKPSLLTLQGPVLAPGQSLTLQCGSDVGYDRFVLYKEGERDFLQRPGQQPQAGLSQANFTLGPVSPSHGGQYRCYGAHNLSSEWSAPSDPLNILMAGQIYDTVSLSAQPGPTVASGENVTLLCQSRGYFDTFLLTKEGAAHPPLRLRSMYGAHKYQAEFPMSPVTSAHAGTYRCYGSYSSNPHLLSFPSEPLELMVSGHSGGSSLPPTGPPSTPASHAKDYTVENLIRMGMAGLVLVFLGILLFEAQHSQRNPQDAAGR

B1: B2H1-55 (antibody, V domains shown)
VH: EVQLLESGGGLVQPGTSLTLSCAASGFSLSTYAMSWVRQAPGKGLEWIGWIYNDGSTYYAAWAKGRFTISKDTSKTTLYLQITSLRAEDTATYFCAREGDYIGYFNIWGQGTLVTVSS
VL: DVVMTQTPSSVSAALGGTVTIKCQASQSIGSNLAWYQLKPGQRPKLLIYAAATLASGGSSRFKGSGSGTDFTLTISSLEPADAATYYCQSYVSGSSDVAFGGGTEVVVK
notes: Humanized variant, human IgG1 / kappa; also called humanized variant B2H1-55; humanized LILRB2 antibody B2H1-55
For B1, the binding result in assay [1], in assay [2], in [3], in assay [4], in assay [5] and in assay [6] was “no binding” each time. Moreover, the binding result in assay [7], in assay [8] and in assay [9] was “no binding” each time. Besides, in [10], the “BMAX [gMFI]” value is 112 gMFI.

B2: B2A-IgG1 (antibody)
heavy: not shown
light: DVVMTQTPSSVSAALGGTVTIKCQASQSIGSNLAWYQLKPGQRPKLLIYAAATLASGGSSRFKGSGSGTDFTLTISDLECADAATYYCQSYVSGSSDVAFGGGTEVVVKRTVAAPSVFIFPPSDEQLKSGTASVVCLLNNFYPREAKVQWKVDNALQSGNSQESVTEQDSKDSTYSLSSTLTLSKADYEKHKVYACEVTHQGLSSPVTKSFNRGEC
notes: Rabbit variable regions on human IgG1 / kappa constant regions; AF647-conjugated in some flow assays; also called B2A-IgG1 chimera; anti-LILRB2 B2A-IgG1
For the molecule B2, the binding result in assay [1], in [2], in assay [3], in assay [4], in assay [5] and in [6] was “no binding” throughout. Also, the binding result in assay [7], in [8] and in assay [9] was “no binding” each time. In addition, the MFI in [11] worked out at 11300 MFI; in [12], 898 MFI; in [13], 38 MFI; in assay [14], 116 MFI; in assay [15] it was 127 MFI; in assay [16] it was 223 MFI. Also, the MFI was 163 MFI in [17], 40 MFI in assay [18] and 147 MFI in assay [19]. Besides, in assay [10], the “BMAX [gMFI]” value turned out to be 104 gMFI. The molecule further returned a half-maximal effective concentration (EC50) in assay [20] of 210 pM.

B3: B2A-IgG4 (antibody)
heavy: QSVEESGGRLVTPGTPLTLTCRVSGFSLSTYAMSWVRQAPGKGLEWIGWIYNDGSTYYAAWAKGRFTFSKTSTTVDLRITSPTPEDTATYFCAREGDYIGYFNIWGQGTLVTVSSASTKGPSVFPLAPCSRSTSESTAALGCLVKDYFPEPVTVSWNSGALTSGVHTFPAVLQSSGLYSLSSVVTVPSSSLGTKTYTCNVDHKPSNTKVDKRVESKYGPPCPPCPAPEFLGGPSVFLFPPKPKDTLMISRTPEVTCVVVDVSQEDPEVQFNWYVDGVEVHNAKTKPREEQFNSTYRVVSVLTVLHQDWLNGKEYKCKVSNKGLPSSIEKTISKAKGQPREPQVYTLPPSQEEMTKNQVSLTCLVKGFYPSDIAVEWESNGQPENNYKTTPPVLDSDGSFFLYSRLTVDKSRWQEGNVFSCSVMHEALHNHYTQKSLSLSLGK
light: DVVMTQTPSSVSAALGGTVTIKCQASQSIGSNLAWYQLKPGQRPKLLIYAAATLASGGSSRFKGSGSGTDFTLTISDLECADAATYYCQSYVSGSSDVAFGGGTEVVVKRTVAAPSVFIFPPSDEQLKSGTASVVCLLNNFYPREAKVQWKVDNALQSGNSQESVTEQDSKDSTYSLSSTLTLSKADYEKHKVYACEVTHQGLSSPVTKSFNRGEC
notes: Rabbit variable regions on human IgG4 / kappa constant regions; also called B2A-IgG4 chimera; Parent B2A-IgG4
Turning to B3, the binding result in assay [1], in assay [2], in assay [3], in [4], in assay [5] and in assay [6] was “no binding” throughout. Besides, the binding result in [7], in assay [8] and in assay [9] was “no binding” in each case. The MFI in [11] stood at 1160 MFI; in [12], 73 MFI; in assay [13], 31 MFI; in assay [14], 30 MFI; in [15], 21 MFI; in assay [16] it was 22 MFI. The MFI in assay [17] was determined as 22 MFI; in [18], 20 MFI; in assay [19] it was 21 MFI. Also, in assay [20], it took 300 pM to reach a half-maximal effect (EC50).
